Measurements reported in publication PMC2914671, “A VLP-based vaccine targeting domain III of the West Nile virus E protein protects from lethal infection in mice” (Virology Journal, 2010).

Target: the molecule itself
Test: transmission electron microscopy; purified AP205 VLPs adsorbed onto carbon-Formvar-coated grids, stained with 2% phosphotungstic acid

B1: AP205 virus-like particles (recombinantly expressed coat protein of bacteriophage AP205) (natural protein)
chain: MANKPMQPITSTANKIVWSDPTRLSTTFSASLLRQRVKVGIAELNNVSGQYVSVYKRPAPKPEGCADACVIMPNENQSIRTVISGSAENLATLKAEWETHKRNVDTLFASGNAGLGFLDPTAAIVSSDTTA
notes: coat protein of the Acinetobacter bacteriophage AP205; monomer 14.0 kDa; The VLPs hold about 25-30 ug of host cell RNA per 100 ug of coat protein; also called AP205 VLPs; AP205 VLP carrier; source: E. coli, purified from cleared lysates (Fractogel TMAE anion exchange, hydroxyapatite); copies: 180
  binding result: binds
